Residue numbers refer to the chain shown, from its start. Several values for one entry are separate records, joined by “and”; a condition that tells them apart may be missing. Identical values can stand only once.
Assays:
[1] = target: T1, human IL-13 (human, UniProt P35225 35-146, biotinylated on the Biacore chip); experiment: cell-based or functional assay
[2] = target: T1, human IL-13; experiment: IL-13 sandwich ELISA, competition with coating antibody
Description: (§1) A MAXISORP™ plate (high protein binding ELISA plate, Nunc, Denmark) was coated overnight with 2.5 μg/ml coating antibody (Module Set, Bender MedSystems, Vienna, Austria), then washed once with 0.05% (v/v) Tween 20 in PBS before blocking with 0.5% (w/v) BSA 0.05% (v/v) Tween 20 in PBS. […] The plate was then incubated with TMB substrate (KPL, Gaithersburg, USA), and the reaction was stopped by the addition of HCl and the absorbance read at 450 nm.

[3] = target: T1, human IL-13; experiment: DOM10 RBA (IL-13 sandwich ELISA per paragraph 473)
Description: as §1
These in-line fusions were constructed and expressed as described above. […] After this incubation, the level of cell proliferation was determined.

[4] = target: T1, human IL-13; experiment: IL-13 BIAcore binding assay
[5] = target: T2, cynomolgous IL-13 (cynomolgous, UniProt Q0PW92 19-132, The Biacore assay used biotinylated cIL-13 according to our card. The biotin cannot be carried in the letters.); experiment: Biacore SPR, biotinylated cynomolgous IL-13 on SA chip
T2 construct: also called cIL-13; cynomolgus IL-13
T2 sequence (Q0PW92 entry or part of it limits assumed, form in doubt): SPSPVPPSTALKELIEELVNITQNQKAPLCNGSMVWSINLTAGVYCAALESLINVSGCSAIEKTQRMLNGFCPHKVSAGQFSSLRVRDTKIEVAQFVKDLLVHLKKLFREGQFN
Description: (§2) 50 to 100 ul of the diluted supernatant was injected (kininject) at 50 ul/min flow rate, followed by a 5 minute dissociation phase. Association and dissociation off-rates and constants were calculated using BIAevaluation software v4.1 (Biacore).

[6] = target: T1, human IL-13; experiment: Biacore SPR, biotinylated human IL-13 on SA chip
Description: as §2

[7] = target: T2, cynomolgous IL-13; experiment: cell-based or functional assay
[8] = target: T1, human IL-13; experiment: cell-based or functional assay; remark: listed apart in the source
[9] = target: T3, human IL-4 (human, UniProt P05112 25-153, biotinylated in the receptor binding assay and on the Biacore chip); experiment: DOM9 RBA (IL-4 RBA)
T3 construct: also called interleukin-4; biotinylated IL-4
T3 sequence (looked up): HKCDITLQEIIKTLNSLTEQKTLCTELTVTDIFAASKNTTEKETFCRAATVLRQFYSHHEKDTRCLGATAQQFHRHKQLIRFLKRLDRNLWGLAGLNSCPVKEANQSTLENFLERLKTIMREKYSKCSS

[10] = target: T4, rhesus IL-4 (rhesus, UniProt P51492 25-153); experiment: inferred from TF-1 proliferation with rhesus IL-4
T4 sequence (looked up): T3 sequence (looked up) with K2N, D4H, T6A, Q8R, K12E, E26K, V29I, F33L, N111D
Description: (§3) The mixture was incubated for 72 hours at 37° C. 5% CO₂. […] 96® reagent (colorometric reagent for determining viability, Promega, Madison, USA) was then added and the number of cells per well was quantified by measuring the absorbance at 490 nm.
(§4) A dose-response of the dAb will determine the ND50 in this set up.

[11] = target: T3, human IL-4; experiment: DOM9 RBA (IL-4 RBA); remark: listed apart in the source
Excerpt: (§5) The wells were washed three times with 0.1% (v/v) Tween 20 in PBS, followed by three washes with PBS, before blocking with 2% (w/v) BSA in PBS. […] The reaction was stopped by the addition of HCl and the absorbance read at 450 nm.

[12] = target: T3, human IL-4; experiment: Biacore SPR, biotinylated IL-4 on SA chip, co-inject
Description: Analytes were passed over the antigen-coated flow-cell, with in-line referencing against a blank flow-cell, at a flow rate of 30 μl/min in HBS-EP running buffer (Biacore). The first dAb was injected, followed immediately by injection of the second dAb using the Biacore's co-inject function.

[13] = target: T5, cynomolgous IL-4 (cynomolgous, UniProt P79339 25-153); experiment: inferred from TF-1 proliferation with cynomolgous IL-4
T5 construct: also called Cyno IL-4
T5 sequence: T3 sequence (looked up) with E26K, V29I, F33L
Description: as §3, §4

[14] = target: T3, human IL-4; experiment: IL-4 RBA: ELISA, IL-4R/Fc coated, biotinylated IL-4
Excerpt: as §5

[15] = target: T3, human IL-4; experiment: screening of the affinity maturation output; IL-4 RBA and cell assay
[16] = target: T1, human IL-13; experiment: cell-based or functional assay; remark: listed apart in the source
[17] = target: T1, human IL-13; experiment: IL-13 receptor alpha2 RBA, competition
Description: (§6) The plate was incubated for seven hours before being read in the 8200 cellular detection system (Applied Biosystems).

[18] = target: variant IL-13 (R130Q) (human), P35225; experiment: cell-based or functional assay
Chain of variant IL-13 (R130Q) (human), P35225 (P35225 35-146, stated change not applied): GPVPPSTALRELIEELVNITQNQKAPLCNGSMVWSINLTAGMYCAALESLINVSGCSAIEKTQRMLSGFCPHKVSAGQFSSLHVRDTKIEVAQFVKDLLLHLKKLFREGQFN

[19] = target: T1, human IL-13; experiment: IL-13 receptor alpha2 RBA, competition; remark: listed apart in the source
Description: as §6

[20] = target: T1, human IL-13; experiment: IL-13 receptor binding assay by the legend; IL-13 sandwich ELISA by paragraph 465
[21] = target: T1, human IL-13; experiment: assay not named ('Potency IC50')
[22] = target: T1, human IL-13; experiment: cell-based or functional assay; remark: listed apart in the source
[23] = target: T1, human IL-13; experiment: Biacore SPR, IL-13 surface
[24] = target: T3, human IL-4; experiment: IL-4 RBA: ELISA, IL-4R/Fc coated, biotinylated IL-4; remark: listed apart in the source
Excerpt: as §5

[25] = target: T3, human IL-4; experiment: cell-based or functional assay
[26] = target: T3, human IL-4; experiment: cell-based or functional assay; remark: listed apart in the source
[27] = target: T1, human IL-13; experiment: IL-13 RBA

T1 sequence (P35225 35-146 limits assumed): as the sequence (P35225 35-146, stated change not applied) above

B1: DOM10-275-1 (other)
VH: EVQLLESGGGLVQPGGSLRLSCAASGFTFDREEMDWVRQAPGKGLEWVSTISPSGRKTYYADSVKGRFTISRDNSKNTLYLQMNSLRAEDTAVYYCAKAYTGFDYWGQGTLVTVSS
notes: VH dAb
Question: With B1 as the binder, how does the “IC50, IL-13 cell binding assay (so in the source)” value [1] read?
Answer: 37 nM

Question: And the IC50 [2]?
Answer: 38 nM

Question: And the IC50 [3]?
Answer: 31.3 nM

Question: And the Kd [4]?
Answer: 25 nM and 28 nM and 27 nM

B2: DOM10-275-78 (other)
VH: B1 VH with A23V, R31V, E32A, G55R, K57G, F103R, D104S, Y105L, Q108P
notes: VH dAb
Question: Which results are given for B2?
Answer: Kd [5]: 0.32 to 0.75 nM; Kd [6]: 0.072 to 0.1 nM; EC50, HEK293 STAT6 SEAP reporter assay, cIL-13 [7]: 1.4 nM; EC50, HEK293 STAT6 SEAP reporter assay, hIL-13 [8]: 2.5 nM

B3: DOM9-155-78 (other)
VL: DIQMTQSPSSLSASVGDRVTITCRASRHIGDWLHWYQQKPGKAPKLLIAWASTLDSGVPSRFSGSGSGTDFTLTISSLQPEDFATYYCLQEGWGPPTFGQGTKVEIKR
notes: Vk dAb
Question: For B3, which IC50 [9] is on record?
Answer: 0.456 nM

Question: Does B3 bind [10]?
Answer: binds

Question: And the IC50 [11]?
Answer: 0.41 nM

B4: DOM9-155-1 (other)
VL: B3 VL with R27L, H28D, A49G, A51G, T53G, D55Q
notes: Vk dAb
Question: Does B4 bind [12]?
Answer: binds

B5: DOM9-155-25 (other)
VL: B3 VL with H28P, G30S
notes: Vk dAb
Question: Which results are given for B5?
Answer: binding result [13]: binds; IC50 [14]: 0.73 nM and 1 nM; binding result [10]: binds

B6: DOM9-155-77 (other)
VL: B3 VL with G30S, A49P, T53G, D55W
notes: Vk dAb
Question: Does B6 bind [10]?
Answer: binds

Question: Does B6 bind [15]?
Answer: binds

B7: DOM10-53-316 (other)
VH: GVQLLESGGGLVQPGGSLRLSCAASGFIFAWYDMGWARQAPGKGLEWVSSIDWHGEVTYYADSVKGRFTISRDNSKNTLYLQMNSLRAEDTAVYYCATAEDEPGYDYWGQGTLVTVSS
notes: VH dAb
Question: Which “IC50, TF-1 proliferation with human IL-13” value [16] does the source give for B7 here?
Answer: 0.39 nM

Question: And the IC50 [17]?
Answer: 1.2 nM

Question: What about the IC50, TF-1 proliferation with variant IL-13 (R130Q) [18] of the same binder?
Answer: 0.52 nM

Question: What about the IC50 [19] of the same binder?
Answer: 2 nM

B8: DOM10-53-474 (other)
VH: B7 VH with I28T, A37V
notes: VH dAb
Question: B8 was tested. Which EC50 [2] did it give?
Answer: 0.023 nM

Question: What about the Kd [5] of the same binder?
Answer: 2 nM

Question: And the Kd [6]?
Answer: 0.028 nM

Question: And the “EC50, HEK293 STAT6 SEAP reporter assay, cIL-13” value [7]?
Answer: 11.1 nM

Question: And the “EC50, HEK293 STAT6 SEAP reporter assay, hIL-13” value [8]?
Answer: 0.63 nM

B9: DOM10-53-344 (other)
VH: B7 VH with A37V
notes: VH dAb
Question: With B9 as the binder, how does the IC50 [20] read?
Answer: 0.04 nM

Question: What about the IC50 [21] of the same binder?
Answer: 0.1 nM

Question: And the “ND50, IL-13 induced TF-1 cell proliferation” value [22]?
Answer: 100 nM

B10: DOM10-53-386 (other)
VH: B7 VH with A37V, E56K, V57I
notes: VH dAb
Question: Does B10 bind [23]?
Answer: binds

B11: DOM9-44-502 (other)
VL: DIQMTQSPSSLSASVGDRVTITCRASQNINFWLRWYQQKPGKAPTLLIYDASRSQSGVPSRFSGSGSGTDFTLTISSLQPEDFATYYCQQDLMPPYTFGQGTKVEIKR
notes: Vk dAb
Question: For B11, which IC50 [24] is on record?
Answer: 4 nM

Question: And the “ND50, IL-4 induced TF-1 cell proliferation” value [25]?
Answer: 4.5 nM

Question: What about the IC50 [14] of the same binder?
Answer: 5.5 nM and 8.6 nM and 4.1 nM and 3.6 nM

Question: And the “average inhibition of HDM induced PBMC proliferation, 100 nM dAb, responding donors” value [26]?
Answer: 38%

B12: DOM10-176-535 (other)
VL: DIQMTQSPSSLSASVGDRVTITCRASQWIGPYLNWYQQKPGKAPKPLIYMGYWAPSGVPSRFSGSGSGTDFTLTISSLQPEDFATYYCQQDLYPPFTFGQGTKVEIKR
notes: Vk dAb
Question: With B12 as the binder, how does the IC50 [2] read?
Answer: 1 nM

Question: What about the “IC50, TF-1 proliferation with human IL-13” value [16] of the same binder?
Answer: 6 nM

Question: What about the IC50 [17] of the same binder?
Answer: 7.9 nM

Question: What about the IC50 [27] of the same binder?
Answer: ~0.5 nM

Question: What about the IC50, TF-1 proliferation with variant IL-13 (R130Q) [18] of the same binder?
Answer: 7.8 nM

Question: And the “ND50, IL-13 induced TF-1 cell proliferation” value [22]?
Answer: 0.77 nM

B13: DOM9-112 (ASTKGPS) DOM10-53-344 (bispecific antibody)
chain: EVQLLESGGGLVQPGGSLRLSCAASGFTFRNYGMAWVRQAPGKGLEWVSWIDASGTETYYADSVKGRFTISRDNSKNTLYLQMNSLRAEDTAVYYCAKSLGRFDYWGQGTLVTVSSASTKGPSGVQLLESGGGLVQPGGSLRLSCAASGFIFAWYDMGWVRQAPGKGLEWVSSIDWHGEVTYYADSVKGRFTISRDNSKNTLYLQMNSLRAEDTAVYYCATAEDEPGYDYWGQGTLVTVSS
notes: in-line fusion of two VH dAbs; also called dual specific ligand
Question: Which IC50 [24] does the source give for B13 here?
Answer: ~1 nM

Question: What about the IC50 [20] of the same binder?
Answer: 0.12 nM

B14: DOM9-112-210 (other)
VH: EVQLLESGGGLVQPGGSLRLSCAASGFTFRNFGMGWVRQAPGKGLEWVSWIISSGTETYYADSVKGRFTISRDNSKNTLYLQMNSLRAEDTAVYYCAKSLGRFDYWGQGTLVTVSS
notes: VH dAb
Question: How did the IC50 [9] turn out when B14 was run?
Answer: 0.391 nM

Question: And the IC50 [14]?
Answer: 0.144 nM
